Test results reported in US6653088 (AVENTIS PHARMA S A, dated 2003).

B1: S-tag-PS2Nt (recombinant PS2NT protein produced in bacterium) (other, not shown: small tags and cut ends)
chain: MLTFMASDSEEEVCDERTSLMSAESPTPRSCQEGRQGPEDGENTAQWRSQENEEDGEEDPDRYVCSGVPGRPPGLEEELTLKYGAKH
notes: also called unlabelled PS2NT
B2: cytoplasmic domain of the APP (MC45F) (other, not shown: small tags and cut ends)
chain: KKQYTSIHHGVVEVDAAVTPEERHLSKMQQNGYENPTYKFFEQMQNDYDDDDK
notes: also called cytoplasmic domain of APP; the 45 last residues of the APP
B3: amyline (peptide, UniProt P10997 34-70, looked up)
peptide: KCNTATCATQRLANFLVHSSNNFGAILSSTNVGSNTY
notes: also called another amyloidogenous peptide

Columns and labels:
biot-3K-Aβ42RR = target: T1, biot-3K-Aβ42RR (UniProt P05067 672-713, biotin at the N-terminal end); assay: HTRF competition; unlabelled PS2NT displaces PS2NT-K from biot-Aβ42
T1 construct: domain: Aβ1-42; also called biot-Aβ42; biot-Aβ1-42

presenilin 2 (PS2) = target: T2, presenilin 2 (PS2) (human, UniProt P49810 1-448); assay: co-immunoprecipitation from cotransfected COS cells, detection with αCT43
T2 construct: whole, on cells; Full-length membrane protein; complexes formed in transfected COS cells and were analysed in detergent lysates; also called complete PS2; STM2
Description: For immunoprecipitation, 100 μg of proteins are diluted in 400 μl of modified RIPA (150 mM NaCl, 50 mM Tris pH 8.0, 1% TRITON X100 v/v, 1% NP40 v/v). Thirty microlitres of protein A Sepharose suspension (0.1% m/v in PBS solution) and 3 μl of antibody are added. The suspensions are gently mixed on a rotating shaker at 4° C. for one night. The protein A Sepharose complex is washed 3 times with 0.5 ml of modified RIPA and once with 0.5 ml of "Wash C" washing buffer (10 mM Tris pH 7.5).

[1] = target: B1; assay: 96-well plate test (ELISA type), peptide on plastic, S-tag detection
Description: The plates are rinsed twice with PBS and the non-specific immobilization sites are saturated by incubation with 5% (w/v) of bovine serum albumin in PBS. […] The detection of the signal is carried out in a spectrophotometer at 450 nm.
The Aβ peptide (Aβ40 or Aβ42) is immobilized by incubation on plastic 96-well plates.

Binder: B1
IC50 (biot-3K-Aβ42RR): 400 nM

Binder: B2
binding result (presenilin 2 (PS2)): no binding

Binder: B3
binding result [1]: no binding
